Among the data in patent US20080075684A1 are A405 nm values, retold here.

Test [1] concerns the target keratin of human hair. Nature of the test: quantitative hair binding test: human hair incubated with His-tagged comparison protein, detection with anti-polyhistidine peroxidase conjugate and TMB, absorption at 405 nm.
Test [2] addresses keratin of human hair. Nature of the test: quantitative hair binding test with the denatured (not renatured) protein: human hair, detection with anti-polyhistidine peroxidase conjugate and TMB, absorption at 405 nm.
Test [3] has as its target keratin of human hair. Nature of the test: quantitative hair binding test: human hair incubated with renatured His-tagged KBD-B, detection with anti-polyhistidine peroxidase conjugate and TMB, absorption at 405 nm.

As to “YaaD from B. subtilis (comparison protein, with His tag) (from UniProt P37527)”, the A405 nm with keratin of human hair [1] worked out at 0.088.

B1: KBD-B (keratin-binding domain B of human desmoplakin), expressed by the vector pQE30-KBD-B in E. coli (protein)
chain: MRGSHHHHHHGSACELEPHTGLLLLSVQKRSMSFQGIRQPVTVTELVDSGILRPSTVNELESGQISYDEVGERIKDFLQGSSCIAGIYNETTKQKLGIYEAMKIGLVRPGTALELLEAQAATGFIVDPVSNLRLPVEEAYKRGLVGIEFKEKLLSAERAVTGYNDPETGNIISLFQAMNKELIEKGHGIRLLEAQIATGGIIDPKESHRLPVDIAYKRGYFNEELSEILSDPSDDTKGFFDPNTEENLTYLQLKERCIKDEETGLCLLPLKEKKKQVQTSQKNTLRKRRVVIVDPETNKEMSVQEGVDLQPSLIS
Take B1: the A405 nm stood at 0.254 with keratin of human hair [2] and 1.59 with keratin of human hair [3].
